In US12331110B2, “Monoclonal antibodies against endotrophin and the use thereof” (THE BOARD OF REGENTS OF THE UNIVERSITY OF TEXAS SYSTEM, priority 2018, dated 2025):

Legend:
[1] = tested on: ETP transfected MCF7 cells; assay: ETP transfected MCF7 tumor growth in nude mice; assay type: in vivo; settings: 2.5 mg/kg cisplatin once a week
Procedure: FIGS. 5A-C. Antibody effects on ETP-MCF7 cells in vivo. (FIG. 5A) ETP transfected MCF7 cells (2×10^6 cells) were implanted into nude mice. An estradiol pellet (0.72 mg) was implanted into nude mice. Then (i) 20 mg/kg ETPmAb4, (ii) 10 mg/kg ETPmAb4 with 10 mg/kg control IgG, (iii) 5 mg/kg ETPmAb4 with 15 mg/kg control IgG, (iv) 2 mg/kg ETPmAb4 with 18 mg/kg control IgG, and (v) 20 mg/kg control IgG (twice a week) were injected after 10-days implantation for 5-weeks. Tumor volume was determined by caliper measurement. Data was represented as mean±SD (n=5/group), and *** p<0.0001 by ANOVA followed by Newman-Keuls multiple comparison test. (FIG. 5B) Total RNA was prepared from tumor tissues from ETP transfected MCF7, ETPmAb4 treatment mice. The EMT markers genes Twist, Snail, Cdh2 and Cdh 1 were determined by qRT-PCR, then normalized to GAPDH. E-CAD immunofluorescence staining for tumor tissues from ETP transfected MCF7 and ETPmAb4 treatment tumor. (FIG. 5C) MCF7 and ETP transfected MCF7 cells (2×10^6 cells) were implanted into nude mice. An estradiol pellet (0.72 mg) was implanted into nude mice. Then 20 mg/kg of antibody ETPmAb4 (twice a week), and 2.5 mg/kg of cisplatin (once a week) were injected after 10-days implantation for 6-weeks. Tumor volume was determined by caliper measurement. Data was represented as mean±SD (n=5/group), and *** p<0.0001 by ANOVA followed by Newman-Keuls multiple comparison test.
Animal experiments. NU/NU nude female mice were purchased from Charles River (Crl: NU-Foxnlnu; Strain Code 088 (Homozygous)). Breast cancer cells (2×10^6 cells) were implanted by intraductal injection. All cell lines were mixed on ice with 1×PBS and Matrigel. Then 100 μL of mixture was injected into mice. Tumors were measured twice a week, beginning 10 days after injection, and tumor volume was calculated by length×(width) 2/2 (mm^3).
(§1) Analysis of Tumor Progression. Tumor onset was monitored twice weekly by palpation. Tumor sizes were measured using a digital caliper twice weekly and the volumes were calculated as length× width2)/2. Inguinal tumors were weighted to determine tumor burden. Animals were sacrificed when the tumor burden visibly affected the host, or when the tumors reached the IACUC pre-determined limit of 20 mm along one axis.
As a next step, whether the anti-endotrophin antibodies effectively curb the aggressive tumor growth observed in endotrophin overexpressing MCF-7 cells was examined. To boost the growth rate of the tumor cells, these assays were performed in the presence of estradiol pellets. Cells (2×10^6 cells) were injected into nude mice and their tumor growth was monitored over time, based on a twice weekly injection of either a control monoclonal preparation, or ETPmAb4; in all cases, a total of 20 mg/kg of antibody was used. The dose dependence was tested by either injecting 20 mg/kg of control antibody, 20 mg/kg of ETPmAb4, or a mixture of the two with decreasing levels of control antibody mixed with increasing levels of ETPmAb4.
To test this, MCF7 cells were used with or without endotrophin overexpression, and the cells were transplanted into nude mice, in the presence of estradiol pellets (FIG. 5C). […] As expected, MCF7 cells harboring an excess in endotrophin grew very aggressively (FIG. 5C; red line).

MDA-MB-231 cells = assay: MDA-MB-231 tumor growth in nude mice; assay type: in vivo; settings: 2.5 mg/kg cisplatin
Procedure: FIGS. 6A-D. The antibody effects on MDA-MB-231 cells in vivo. (FIG. 6A) MDA-MB-231 cells (2×10^6 cells) were implanted into nude mice. Then 2.5 mg/kg of cisplatin and 20 mg/kg of ETPmAb4 antibody (twice a week) were injected after 10-days implantation for 5-weeks. Tumor volume was determined by caliper measurement. The insert reflects a simplified analysis of control antibody versus ETPmAb4 with associated statistics. (FIG. 6B) MDA-MB-231 cells (2×10^6 cells) were implanted into nude mice. Treatment was started when the tumor volume was over 30 mm^3. At that point, 2.5 mg/kg of cisplatin and 20 mg/kg of ETPmAb4 antibody (twice weekly) were injected for 5-weeks. Tumor volumes were determined by caliper measurements. The insert reflects a simplified analysis of control antibody versus ETPmAb4 with associated statistics. (FIG. 6C) SKOV3 cells (2×10^6 cells) were implanted into nude mice. Then 2.5 mg/kg of cisplatin and 20 mg/kg of ETPmAb4 antibody (twice weekly) were injected 10-days after implantation for 5-weeks. Tumor volumes were determined by caliper measurements. The insert reflects a simplified analysis of control antibody versus ETPmAb4 with associated statistics. (FIG. 6D) MDA-MB-231 cells (2×10^6 cells) were implanted into nude mice. Then 2.5 mg/kg of cisplatin, 20 mg/kg of ETPmAb4 antibody and 20 mg/kg of humanized ETPmAb4 antibody (twice a week) were injected after 10-days implantation for 5-weeks. Tumor volume was determined by caliper measurement. […]
(§2) Animal experiments. […] Tumors were measured twice a week, beginning 10 days after injection, and tumor volume was calculated by length×(width) 2/2 (mm^3).
as §1, with “Inguinal tumors were weighted to determine tumor burden.” left out, “axis. […]” for “axis.”
After humanization, the binding affinity of hETPmAb4 to endotrophin was measured in Octet RED96. […]

MCF7 cells = assay: MCF7 tumor growth in nude mice; assay type: in vivo; settings: 2.5 mg/kg cisplatin once a week, estradiol pellet
Procedure: FIGS. 5A-C. Antibody effects on ETP-MCF7 cells in vivo. (FIG. 5A) ETP transfected MCF7 cells (2×10^6 cells) were implanted into nude mice. An estradiol pellet (0.72 mg) was implanted into nude mice. Then (i) 20 mg/kg ETPmAb4, (ii) 10 mg/kg ETPmAb4 with 10 mg/kg control IgG, (iii) 5 mg/kg ETPmAb4 with 15 mg/kg control IgG, (iv) 2 mg/kg ETPmAb4 with 18 mg/kg control IgG, and (v) 20 mg/kg control IgG (twice a week) were injected after 10-days implantation for 5-weeks. Tumor volume was determined by caliper measurement. Data was represented as mean±SD (n=5/group), and *** p<0.0001 by ANOVA followed by Newman-Keuls multiple comparison test. (FIG. 5B) Total RNA was prepared from tumor tissues from ETP transfected MCF7, ETPmAb4 treatment mice. The EMT markers genes Twist, Snail, Cdh2 and Cdh 1 were determined by qRT-PCR, then normalized to GAPDH. […] Tumor volume was determined by caliper measurement. […]
as §2
as §1, with “Inguinal tumors were weighted to determine tumor burden.” left out, “axis. […]” for “axis.”

[2] = molecular target: T1, recombinant endotrophin protein (Homo sapiens, UniProt P12111); assay: Affinity measurement with BLI (Octet RED96); settings: Octet (96-Red), 1:1 binding model
T1 construct: the latter consisting of 77 amino acids at the carboxy-terminal of the COL6α3 chain; CD33 signal peptide (N, cleaved yes); His-tag with EK-cleavage site (N, cleaved yes); purchased Sino Biological, Beijing, China; host or cells: HEK293
T1 sequence (P12111 3101-3177): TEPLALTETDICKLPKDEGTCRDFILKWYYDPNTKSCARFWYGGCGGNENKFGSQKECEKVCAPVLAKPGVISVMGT
Procedure: FIGS. 12A-B. Kinetic sensorgrams for ETP-mAb4 (FIG. 12A) and each of the humanized antibodies (FIG. 12B). […]
For antibody affinity measurement, antibody (30 μg/mL) was loaded onto the protein A biosensors for 4 min. Following a short baseline in kinetics buffer, the loaded biosensors were exposed to a series of recombinant endotrophin protein at 0.1-200 nM and background subtraction was used to correct for sensor drifting. All experiments were performed with shaking at 1,000 rpm. Background wavelength shifts were measured from reference biosensors that were loaded only with antibody. Kinetic sensorgrams for each antibody are shown in FIGS. 12A&B. ForteBio's data analysis software was used to fit the data to a 1:1 binding model to extract an association rate and dissociation rate. The Kd was calculated using the ratio of koff/kon and the estimated values of […] for endotrophin ETP-mAb4 and 4 humanized ETP-hMab4 antibodies are listed in Table 4.

| Molecule | kdis [2] | kon [2] | lesion growth, cisplatinum alone or with control antibody [1] | lesion growth, cisplatinum alone or with control antibodies (MDA-MB-231 cells) | lesion growth, cisplatinum (MCF7 cells) |
| --- | --- | --- | --- | --- | --- |
| N.N.[Cl][Pt][Cl] [cisplatinum, cisplatin, reference compound] |  |  | moderately reduced | reduced | significantly curbed lesion growth |
| ETP-mAb4.1: humanized IgG1 version of ETPmAb4; VH SEQ ID NO: 157, VL SEQ ID NO: 158 (antibody, V domains shown, human IgG1 constant regions) VH: EVQLLESGGGLVQPGGSLRLSCAASGFSFSSGYYICWVRQAPGKGLEWIACIYGGNNNPYYANWVNGRFTISRDNSKNTLYLQMNSLRAEDTAVYYCARKDINIGGAYELWGQGTLVTVSS VL: DIQMTQSPSSLSASVGDRVTITCQASQSISSSYLSWYQQKPGKAPKLLIYKASTLASGVPSRFSGSGSGTDFTLTISSLQPEDFATYYCQYSDWANSYGNAFGGGTKVEIK | 2.35 E−04 1/s | 1.16 E+05 1/Ms |  |  |  |
| ETP-mAb4.2: humanized IgG1 version of ETPmAb4; VH SEQ ID NO: 159, VL SEQ ID NO: 158 (antibody, V domains shown, human IgG1 constant regions) VH: EVQLLESGGGLVQPGGSLRLSCAASGFSFSSGYYICWVRQAPGKGLEWIACIYGGNSNPYYANWVNGRFTISRDNSKNTLYLQMNSLRAEDTAVYYCARKDINIGGAYELWGQGTLVTVSS VL: DIQMTQSPSSLSASVGDRVTITCQASQSISSSYLSWYQQKPGKAPKLLIYKASTLASGVPSRFSGSGSGTDFTLTISSLQPEDFATYYCQYSDWANSYGNAFGGGTKVEIK | 3.05 E−04 1/s | 1.23 E+05 1/Ms |  |  |  |

Continued, in another order:

| kdis [2] | kon [2] | Molecule | lesion growth, cisplatinum alone or with control antibody [1] | lesion growth, cisplatinum alone or with control antibodies (MDA-MB-231 cells) | lesion growth, cisplatinum (MCF7 cells) |
| --- | --- | --- | --- | --- | --- |
| 3.28 E−04 1/s | 1.30 E+05 1/Ms | ETP-mAb4.4: humanized IgG1 version of ETPmAb4; VH SEQ ID NO: 161, VL SEQ ID NO: 158 (antibody, V domains shown, human IgG1 constant regions) VH: EVQLLESGGGLVQPGGSLRLSCAASGFSFSSGYYICWVRQAPGKGLEWIACIYGGNNNPYYANWVNGRFTTSRDNSKNTLYLQMNSLRAEDTAVYYCARKDINIGGAYELWGQGTLVTVSS VL: DIQMTQSPSSLSASVGDRVTITCQASQSISSSYLSWYQQKPGKAPKLLIYKASTLASGVPSRFSGSGSGTDFTLTISSLQPEDFATYYCQYSDWANSYGNAFGGGTKVEIK |  |  |  |
| 2.23 E−04 1/s | 1.16 E+05 1/Ms | ETP-mAb4.5: humanized IgG1 version of ETPmAb4; VH SEQ ID NO: 162, VL SEQ ID NO: 158 (antibody, V domains shown, human IgG1 constant regions) VH: EVQLLESGGGLVQPGGSLRLSCAASGFTFSSGYYICWVRQAPGKGLEWIACIYGGNSNPYYANWVNGRFTISRDNSKNTLYLQMNSLRAEDTAVYYCARKDINIGGAYELWGQGTLVTVSS VL: DIQMTQSPSSLSASVGDRVTITCQASQSISSSYLSWYQQKPGKAPKLLIYKASTLASGVPSRFSGSGSGTDFTLTISSLQPEDFATYYCQYSDWANSYGNAFGGGTKVEIK |  |  |  |
